Source: the supplement of paper PMC11780869

System: Bacillus subtilis
Assay: cleaved RNA product abundance (RNA/gDNA barcode ratio) relative to median wild-type variant (ratio to wild type); higher = more accumulation of the downstream cleavage product
Details: cleavage site: cggR-gapA (positions -7 to +36 mutated)
Procedure, shortened: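 The B. subtilis chromosome carried reporter mRNAs, truncated aprE or tetM, containing barcoded RNase Y cleavage-site windows mutagenized using oligos with a 9% error rate. After growth in LB at 37°C from OD600 0.0003 to 0.3, cleaved RNA was gel-selected, reverse transcribed and barcode-sequenced next to genomic DNA barcodes, with UMI collapsing. Each construct's RNA:gDNA barcode ratio was scaled to the median construct with the unmutated site. That scaled ratio is reported as cleaved product abundance.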

[1] = experiment (reporter, strain, medium): exp 4a: truncated aprE reporter, strain BJT201 with 2% xylose (RNase J1 expressed)
[2] = experiment (reporter, strain, medium): exp 2b: truncated aprE reporter, strain BJT200

Row | Sequence | cleaved RNA product abundance [1] | cleaved RNA product abundance [2] | cleaved RNA product abundance (experiment (reporter, strain, medium): exp 6: tetM reporter, strain 168)
1 | ACAGACGAAGGAGCCGCAGAGAAGTTATTAAGGGCTGAATAATCCCTCAATATAAATATCTCTCACTTATTTAAA | 0.694 |  | 
2 | ACAGACGAAGGAGCCGCAGAGAAGTTATTAAGGTATGAATAATCCCTCAATATAAATATCTCTCACTTATTTAAA | 0.137 |  | 
3 | ACAGACGAAGGAGCCGCAGAGAAGTTATTAAGTGATGAATAATCCCTCAATATAAATATCTCTCACTTATTTAAA | 0.161 |  | 
4 | ACAGACGAAGGAGCCGCAGAGAAGTTATTAATGGATGAATAATCCCTCAATATAAATATCTCTCACTTATTTAAA | 0.184 |  | 
5 | ACAGACGAAGGAGCCGCAGAGAAGTTTTTAAGGGATGAATAATCCCTCAATATAAATATCTCTCACTTATTTAAA | 0.37 |  | 
6 | ACAGACGAAGGAGCCGCAGATAAGTTATTAAGGGATGAATAATCCCTCAATATAAATATCTCTCACTTATTTAAA | 0.636 |  | 
7 | ACAGACGAAGGAGCCGCATAAAAGTTATTAAGGCATGAATAATCCCTCAATATAAATATCTCTCACTTATTTAAA | 0.0533 |  | 
8 | ACAGACGAAGGAGCCGCATAGAAATTATTAAGGGATGAATAATCCCTCAATATAAATATCTCTCACTTATTTAAA | 0.574 | 0.834 | 
9 | ACAGACGAAGGAGCCGCATAGAACTTATTAAGGGATGAATAATCCCTCAATATAAATATCTCTCACTTATTTAAA | 0.499 | 0.341 | 
10 | ACAGACGAAGGAGCCGCATAGAAGTAATTAAGGGATGAATAATCCCTCAATATAAATATCTCTCACTTATTTAAA | 0.356 |  | 
11 | ACAGACGAAGGAGCCGCATAGAAGTTAATAAGGGATGAATAATCCCTCAATATAAATATCTCTCACTTATTTAAA | 0.304 | 0.239 | 
12 | ACAGACGAAGGAGCCGCATAGAAGTTACTAAGGGATGAATAATCCCTCAATATAAATATCTCTCACTTATTTAAA | 0.221 | 0.24 | 
13 | ACAGACGAAGGAGCCGCATAGAAGTTATAAAGGGATGAATAATCCCTCAATATAAATATCTCTCACTTATTTAAA | 0.339 |  | 
14 | ACAGACGAAGGAGCCGCATAGAAGTTATCAAGGGATGAATAATCCCTCAATATAAATATCTCTCACTTATTTAAA | 0.549 |  | 
15 | ACAGACGAAGGAGCCGCATAGAAGTTATTAAAGGATGAATAATCCCTCAATATAAATATCTCTCACTTATTTAAA | 0.199 |  | 
16 | ACAGACGAAGGAGCCGCATAGAAGTTATTAACGGATGAATAATCCCTCAATATAAATATCTCTCACTTATTTAAA | 0.193 |  | 
17 | ACAGACGAAGGAGCCGCATAGAAGTTATTAAGAGATGAATAATCCCTCAATATAAATATCTCTCACTTATTTAAA | 0.154 |  | 
18 | ACAGACGAAGGAGCCGCATAGAAGTTATTAAGCGATGAATAATCCCTCAATATAAATATCTCTCACTTATTTAAA | 0.122 |  | 
19 | ACAGACGAAGGAGCCGCATAGAAGTTATTAAGGAATGAATAATCCCTCAATATAAATATCTCTCACTTATTTAAA | 0.135 | 0.082 | 
20 | ACAGACGAAGGAGCCGCATAGAAGTTATTAAGGAATGAATAATTCCTCAATATAAATATCTCTCACTTATTTAAA | 0.893 |  | 

Row | Sequence | cleaved RNA product abundance [1] | cleaved RNA product abundance [2] | cleaved RNA product abundance (experiment (reporter, strain, medium): exp 6: tetM reporter, strain 168)
21 | ACAGACGAAGGAGCCGCATAGAAGTTATTAAGGAATGAATATTCCCTCAATATAAATATCTCTCACTTATTTAAA | 0.263 |  | 
22 | ACAGACGAAGGAGCCGCATAGAAGTTATTAAGGCATGAATAAGCCCTCAATATAAATATCTCTCACTTATTTAAA | 0.143 |  | 
23 | ACAGACGAAGGAGCCGCATAGAAGTTATTAAGGCATGAATAATCCCTCAATATAAATATCTCTCACTTATTTAAA | 0.13 | 0.0988 | 
24 | ACAGACGAAGGAGCCGCATAGAAGTTATTAAGGGAAGAATAATCCCTCAATATAAATATCTCTCACTTATTTAAA | 0.6 |  | 
25 | ACAGACGAAGGAGCCGCATAGAAGTTATTAAGGGATAAATAATCCCTCAATATAAATATCTCTCACTTATTTAAA | 0.861 | 1.03 | 
26 | ACAGACGAAGGAGCCGCATAGAAGTTATTAAGGGATCAATAATCCCTCAATATAAATATCTCTCACTTATTTAAA | 1.04 |  | 
27 | ACAGACGAAGGAGCCGCATAGAAGTTATTAAGGGATGAAGAATCCCTCAATATAAATATCTCTCACTTATTTAAA | 0.861 |  | 
28 | ACAGACGAAGGAGCCGCATAGAAGTTATTAAGGGATGAATAAACCCTCAATATAAATATCTCTCACTTATTTAAA | 0.471 | 0.448 | 
29 | ACAGACGAAGGAGCCGCATAGAAGTTATTAAGGGATGAATAACCCCTCAATATAAATATCTCTCACTTATTTAAA |  | 0.457 | 
30 | ACAGACGAAGGAGCCGCATAGAAGTTATTAAGGGATGAATAAGCCCTCAATATAAATATCTCTCACTTATTTAAA | 0.32 |  | 
31 | ACAGACGAAGGAGCCGCATAGAAGTTATTAAGGGATGAATAATACCTCAATATAAATATCTCTCACTTATTTAAA | 0.179 | 0.115 | 
32 | ACAGACGAAGGAGCCGCATAGAAGTTATTAAGGGATGAATAATCACTCAATATAAATATCTCTCACTTATTTAAA | 0.166 | 0.134 | 
33 | ACAGACGAAGGAGCCGCATAGAAGTTATTAAGGGATGAATAATCCATCAATATAAATATCTCTCACTTATTTAAA | 0.245 | 0.112 | 
34 | ACAGACGAAGGAGCCGCATAGAAGTTATTAAGGGATGAATAATCCCACAATATAAATATCTCTCACTTATTTAAA | 0.292 |  | 
35 | ACAGACGAAGGAGCCGCATAGAAGTTATTAAGGGATGAATAATCCCCCAATATAAATATCTCTCACTTATTTAAA | 0.319 | 0.247 | 
36 | ACAGACGAAGGAGCCGCATAGAAGTTATTAAGGGATGAATAATCCCTAAATATAAATATCTCTCACTTATTTAAA | 0.658 |  | 
37 | ACAGACGAAGGAGCCGCATAGAAGTTATTAAGGGATGAATAATCCCTCAACATAAATATCTCTCACTTATTTAAA | 0.317 |  | 
38 | ACAGACGAAGGAGCCGCATAGAAGTTATTAAGGGATGAATAATCCCTCAATAGAAATATCTCTCACTTATTTAAA | 0.149 |  | 
39 | ACAGACGAAGGAGCCGCATAGAAGTTATTAAGGGATGAATAATCCCTCAATATAAACATCTCTCACTTATTTAAA | 1 |  | 
40 | ACAGACGAAGGAGCCGCATAGAAGTTATTAAGGGATGAATAATCCCTCAATATAAATATCTCTCACTTATTTAAA | 1.01 | 1 | 1.06

Row | Sequence | cleaved RNA product abundance [1] | cleaved RNA product abundance [2] | cleaved RNA product abundance (experiment (reporter, strain, medium): exp 6: tetM reporter, strain 168)
41 | ACAGACGAAGGAGCCGCATAGAAGTTATTAAGGGATGAATAATCCCTCAATATAAATTTCTCTCACTTATTTAAA | 0.644 |  | 
42 | ACAGACGAAGGAGCCGCATAGAAGTTATTAAGGGATGAATAATCCCTCAATATTAATATCTCTCACTTATTTAAA | 0.121 |  | 
43 | ACAGACGAAGGAGCCGCATAGAAGTTATTAAGGGATGAATAATCCCTCAATTTAAATATCTCTCACTTATTTAAA |  | 0.195 | 
44 | ACAGACGAAGGAGCCGCATAGAAGTTATTAAGGGATGAATAATCCCTCACTATAAATATCTCTCACTTATTTAAA | 0.24 |  | 
45 | ACAGACGAAGGAGCCGCATAGAAGTTATTAAGGGATGAATAATCCCTCATTATAAATATCTCTCACTTATTTAAA | 0.41 |  | 
46 | ACAGACGAAGGAGCCGCATAGAAGTTATTAAGGGATGAATAATCCCTCCATATAAATATCTCTCACTTATTTAAA | 0.24 |  | 
47 | ACAGACGAAGGAGCCGCATAGAAGTTATTAAGGGATGAATAATCCCTGAATATAAATATCTCTCACTTATTTAAA | 0.679 |  | 
48 | ACAGACGAAGGAGCCGCATAGAAGTTATTAAGGGATGAATAATCCCTTAATATAAATATCTCTCACTTATTTAAA | 0.448 | 1.12 | 
49 | ACAGACGAAGGAGCCGCATAGAAGTTATTAAGGGATGAATAATCCGTCAATATAAATATCTCTCACTTATTTAAA | 0.235 |  | 
50 | ACAGACGAAGGAGCCGCATAGAAGTTATTAAGGGATGAATAATCCTTCAATATAAATATCTCTCACTTATTTAAA | 0.54 | 0.516 | 
51 | ACAGACGAAGGAGCCGCATAGAAGTTATTAAGGGATGAATAATCGCTCAATATAAATATCTCTCACTTATTTAAA | 0.141 |  | 
52 | ACAGACGAAGGAGCCGCATAGAAGTTATTAAGGGATGAATAATCTCTCAATATAAATATCTCTCACTTATTTAAA |  | 1.08 | 
53 | ACAGACGAAGGAGCCGCATAGAAGTTATTAAGGGATGAATAATGCCTCAATATAAATATCTCTCACTTATTTAAA | 0.141 |  | 
54 | ACAGACGAAGGAGCCGCATAGAAGTTATTAAGGGATGAATACTCCCTCAATATAAATATCTCTCACTTATTTAAA | 0.618 |  | 
55 | ACAGACGAAGGAGCCGCATAGAAGTTATTAAGGGATGACTAATCCCTCAATATAAATATCTCTCACTTATTTAAA | 0.679 |  | 
56 | ACAGACGAAGGAGCCGCATAGAAGTTATTAAGGGATGCATAATCCCTCAATATAAATATCTCTCACTTATTTAAA | 0.933 |  | 
57 | ACAGACGAAGGAGCCGCATAGAAGTTATTAAGGGATTAATAATCCCTCAATATAAATATCTCTCACTTATTTAAA | 1.38 | 1 | 
58 | ACAGACGAAGGAGCCGCATAGAAGTTATTAAGGGTTGAATAATCCCTCAATATAAATATCTCTCACTTATTTAAA | 0.41 | 0.498 | 
59 | ACAGACGAAGGAGCCGCATAGAAGTTATTAAGGTATGAATAATCCCTCAATATAAATATCTCTCACTTATTTAAA | 0.159 |  | 
60 | ACAGACGAAGGAGCCGCATAGAAGTTATTAAGTGATGAATAATCCCTCAATATAAATATCTCTCACTTATTTAAA | 0.0818 | 0.121 | 
